The values below come from patent US20140105889A1 (published 2014).

One experiment addresses T1, FcγRIIa type H (human, UniProt P12318 36-217).
T1 construct: Soluble analyte in Biacore; also called FcγRIIaH; FcγRIIa(H)
T1 sequence: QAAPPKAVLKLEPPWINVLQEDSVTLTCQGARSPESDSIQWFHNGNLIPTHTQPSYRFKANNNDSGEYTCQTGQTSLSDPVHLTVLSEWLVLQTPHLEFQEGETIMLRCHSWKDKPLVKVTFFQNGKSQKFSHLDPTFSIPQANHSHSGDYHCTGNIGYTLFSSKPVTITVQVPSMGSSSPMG
Put plainly: SPR (Biacore), antibody captured on chip, FcγR as analyte, method of Example 14.

Experiment [1] has as its target T2, FcγRIIb (human, UniProt P31994 43-217, limits assumed).
T2 construct: Soluble analyte in Biacore; also called FcgRIIb; FcγIIB
T2 sequence: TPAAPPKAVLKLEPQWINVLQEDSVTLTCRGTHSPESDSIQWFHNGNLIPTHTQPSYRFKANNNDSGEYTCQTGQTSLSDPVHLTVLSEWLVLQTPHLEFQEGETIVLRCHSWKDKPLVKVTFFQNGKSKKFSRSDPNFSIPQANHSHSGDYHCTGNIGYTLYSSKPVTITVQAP
Kind of experiment: SPR (Biacore); ratio against the parent IL6R-B3/IL6R-L. (In general: In SPR one partner is held on a chip, and binding of the other changes the refractive index at the surface.)

The target of another experiment is T3, FcγRIIIa type V (human, UniProt P08637 17-208, limits assumed).
T3 construct: Soluble analyte in Biacore; also called FcγRIIIaV; FcγRIIIa(V)
Kind of experiment: SPR (Biacore), antibody captured on chip, FcγR as analyte, method of Example 14.

The target in experiment [2] is T2, FcγRIIb. The experiment is described as above.
The target in experiment [3] is T4, human FcRn (soluble human FcRn complexed with beta2-microglobulin) (human, UniProt P61769 21-119).
T4 construct: Soluble human FcRn complexed with beta2-microglobulin; also called hFcRn
Kind of experiment: Biacore SPR, antibody captured on Protein L, human FcRn analyte, pH 7.0.

T4 sequence (chain, as listed by the source limits assumed, chain 1 of 2): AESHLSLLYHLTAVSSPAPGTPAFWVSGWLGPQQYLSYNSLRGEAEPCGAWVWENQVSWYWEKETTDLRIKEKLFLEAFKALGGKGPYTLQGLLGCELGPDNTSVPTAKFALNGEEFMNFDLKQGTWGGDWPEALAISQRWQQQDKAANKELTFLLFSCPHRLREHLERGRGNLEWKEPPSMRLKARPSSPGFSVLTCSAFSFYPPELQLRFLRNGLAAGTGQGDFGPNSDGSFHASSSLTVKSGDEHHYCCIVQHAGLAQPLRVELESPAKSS
T4 sequence (P61769 21-119 limits assumed, chain 2 of 2): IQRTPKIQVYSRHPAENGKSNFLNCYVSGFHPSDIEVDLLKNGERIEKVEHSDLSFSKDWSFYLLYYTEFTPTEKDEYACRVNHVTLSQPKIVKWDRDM
T3 sequence (P08637 other isoform, or with tags, fused parts or gaps limits assumed): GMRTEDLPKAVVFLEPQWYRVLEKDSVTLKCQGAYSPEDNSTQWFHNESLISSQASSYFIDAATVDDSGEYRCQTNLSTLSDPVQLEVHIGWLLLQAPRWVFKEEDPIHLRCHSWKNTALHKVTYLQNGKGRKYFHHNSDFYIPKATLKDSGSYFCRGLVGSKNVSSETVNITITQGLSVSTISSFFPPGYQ

B1: IL6R-BP212/IL6R-L (antibody, human IgG1)
heavy: QVQLQESGPGLVKPSETLSLTCAVSGHSISHDHAWSWVRQPPGEGLEWIGFISYSGITNYNPSLQGRVTISRDNSKNTLYLQMNSLRAEDTAVYYCARSLARTTAMDYWGEGTLVTVSSASTKGPSVFPLAPSSKSTSGGTAALGCLVKDYFPEPVTVSWNSGALTSGVHTFPAVLQSSGLYSLSSVVTVPSSSLGTQTYICNVNHKPSNTKVDKKVEPKSCDKTHTCPPCPAPDLLGGDSVFLFPPKPKDTLMISRTPEVTCVVVDVSDEDGEVKFNWYVDGVEVHNAKTKPREEQDNSTYRVVSVLTVLHQDWLNGKEYKCKVSNKALPRPIEKTISKAKGQPREPQVYTLPPSRDELTKNQVSLTCLVKGFYPSDIAVEWESNGQPENNYKTTPPVLDSDGSFFLYSKLTVDKSRWQQGNVFSCSVMHEALHNHYTQESLSLSP
light: DIQMTQSPSSLSASVGDRVTITCRASQDISSYLNWYQQKPGKAPKLLIYYTSRLHSGVPSRFSGSGSGTDFTFTISSLQPEDIATYYCQQGNTLPYTFGQGTKVEIK
notes: Anti-human IL-6 receptor IgG1 Fc variant
Consider B1, for which, in the experiment with FcγRIIa type H, the Kd (in general, the constant that tells how readily two partners part at equilibrium) is 2200 nM. Further, the “KD(IIb) of the parent polypeptide/KD(IIb) of the altered polypeptide” value in the experiment with FcγRIIb [1] was 16.7 fold.

B2: IL6R-BP213/IL6R-L (antibody, human IgG1)
heavy: QVQLQESGPGLVKPSETLSLTCAVSGHSISHDHAWSWVRQPPGEGLEWIGFISYSGITNYNPSLQGRVTISRDNSKNTLYLQMNSLRAEDTAVYYCARSLARTTAMDYWGEGTLVTVSSASTKGPSVFPLAPSSKSTSGGTAALGCLVKDYFPEPVTVSWNSGALTSGVHTFPAVLQSSGLYSLSSVVTVPSSSLGTQTYICNVNHKPSNTKVDKKVEPKSCDKTHTCPPCPAPDLLGGDSVFLFPPKPKDTLMISRTPEVTCVVVDVSDEDGEVKFNWYVDGVEVHNAKTKPREEQYNSTYRVVSVLTVLHQDWLNGKEYKCKVSNKALPRPIEKTISKAKGQPREPQVYTLPPSRDELTKNQVSLTCLVKGFYPSDIAVEWESNGQPENNYKTTPPVLDSDGSFFLYSKLTVDKSRWQQGNVFSCSVMHEALHNHYTQESLSLSP
light: DIQMTQSPSSLSASVGDRVTITCRASQDISSYLNWYQQKPGKAPKLLIYYTSRLHSGVPSRFSGSGSGTDFTFTISSLQPEDIATYYCQQGNTLPYTFGQGTKVEIK
notes: as for B1
As for B2, the Kd in the experiment with FcγRIIIa type V came to 63 µM; in the experiment with FcγRIIb [2], 160 nM. Besides, in the experiment with FcγRIIb [1], the “KD(IIb) of the parent polypeptide/KD(IIb) of the altered polypeptide” value was 17.5 fold.

B3: IgG1-F327 (antibody, name in EU numbering)
heavy: QVQLQESGPGLVKPSETLSLTCAVSGHSISHDHAWSWVRQPPGEGLEWIGFISYSGITNYNPSLQGRVTISRDNSKNTLYLQMNSLRAEDTAVYYCARSLARTTAMDYWGEGTLVTVSSASTKGPSVFPLAPSSKSTSGGTAALGCLVKDYFPEPVTVSWNSGALTSGVHTFPAVLQSSGLYSLSSVVTVPSSSLGTQTYICNVNHKPSNTKVDKKVEPKSCDKTHTCPPCPAPELLGGPKVFLFPPKPKDTLYISREPEVTCVVVDVSHEFPEVKFNWYVDGVEVHNAKTKPREEQYNSTYRVVSVLQVLHADWLNGKEYKCKVSNKALPAPIEKTISKAKGQPREPQVYTLPPSRDELTKNQVSLTCLVKGFYPSDIAVEWESNGQPENNYKTTPPVLDSDGSFFLYSKLTVDKSRWQQGNVFSCSVMHEALHYHYTQKSLSLSP
light: not shown
notes: Fc variant of VH3-IgG1; copies: 2 + 2
Regarding B3, binding in experiment [3] was characterised by a dissociation constant (Kd) of 65 nM.

B4: IgG1-F329 (antibody, name in EU numbering)
heavy: QVQLQESGPGLVKPSETLSLTCAVSGHSISHDHAWSWVRQPPGEGLEWIGFISYSGITNYNPSLQGRVTISRDNSKNTLYLQMNSLRAEDTAVYYCARSLARTTAMDYWGEGTLVTVSSASTKGPSVFPLAPSSKSTSGGTAALGCLVKDYFPEPVTVSWNSGALTSGVHTFPAVLQSSGLYSLSSVVTVPSSSLGTQTYICNVNHKPSNTKVDKKVEPKSCDKTHTCPPCPAPELLGGPKVFLFPPKPKDTLYISRTPEVTCVVVDVSHEFPEVKFNWYVDGVEVHEAKTKPREEQYNSTYRVVSVLTPLHQDWLNGKEYKCKVSNKALPAPIEKTISKAKGQPREPQVYTLPPSRDELTKNQVSLTCLVKGFYPSDIAVEWESNGQPENNYKTTPPVLDSDGSFFLYSKLTVDKSRWQQGNVFSCSVMHEALHYHYTQKSLSLSP
light: not shown
notes: as for B3
For the molecule B4, the dissociation constant Kd in experiment [3] was found to be 12 nM.
